According to US20260234204A1, “BRK PEPTIDES AND METHODS OF USE” (Concarlo Therapeutics, Inc., priority 2023, published 2026):

Tests used:
Type in all cases: cell-based
PDAC cell lines [1] = assay: Rescue of IpY.20 effect on viability by pretreatment with inhibitors
Procedure: When the less sensitive PDAC lines were treated with IpY.20, pRIPK1 expression, a marker of necroptosis, increased (FIG. 3A). To determine if ROS-dependent induction of pRIPK1 and necroptosis was responsible for IpY.20's effect in PDAC cell lines, cells lines (A-D) were treated with N-acetyl-1-cysteine (5 mM) a ROS inhibitor, Necrostatin-1 (10 μM) which prevents RIPK1 phosphorylation and Caspase-3/7 Inhibitor, for 24 h, followed by IpY.20 for the next 24 h. N=4 *p<0.05.
(§1) When these lines were pre-treated with NAC, Nec-1, or Caspase 3/7 inhibitor followed by IpY.20 treatment, differential results were observed. N=4 *p<0.05 (FIGS. 4A-4D). NAC treatment of BxPC3 cells reduced ROS levels (FIG. 4B), but these cells were rescued by caspase treatment (FIG. 4C). […] Percent viability relative to control plotted in all cases. L3.6 (FIG. 4E), PL45 (FIG. 4F) and Panel (FIG. 4G) were rescued by NEC-1, NAC and caspase inhibition to differing extents. Biomarkers dictating response were determined.

PDAC cell lines [2] = assay: ROS-Glo assay in PDAC cells
Procedure: (§2) FIGS. 2A-2F. FIGS. 2A and 2B are Western Blots, illustrating results from assays performed with treatment naive cells to analyze the expression levels of p27. Cells were harvested with RIPA buffer supplemented with protease inhibitors. The MCF7-ALT Dox inducible cell line was used as a control. […] Cells were treated with increasing concentrations of IpY.20 for 24h. Viability was measured using the Cell Titer Glo assay (Promega). Viability was calculated relative to untreated control cells. N=4 *p<0.05. […] FIGS. 2D, 2E and 2F are graphs illustrating that IpY.20 induces ROS. Cells were treated with IpY.20 for 24 h. ROS levels were measured using ROS-Glo assay (Promega). % ROS was calculated relative to untreated control cells. N=4 *p<0.05. The MCF7-ALT inducible cell line induced ROS.

BxPC3 = assay: Caspase-Glo 3/7 Assay for apoptosis; conditions: treated 24 h
From the text: as §1

pRIPK1 = pRIPK1 expression (marker of necroptosis)
[3] = tested on: Pancreatic Ductal Adenocarcinoma (PDAC) cell lines; assay: Cell viability (Cell Titer Glo) in PDAC cell lines
Procedure: FIGS. 1A-1D. FIGS. 1A and 1B are respectively a graph and an image showing that PDAC cells are resistant to palbociclib-treatment. Cells were treated with increasing concentrations of palbociclib (PD) for 24 h before analysis for viability (Cell Titer Glo, Promega). N=4 *p<0.05. Control=untreated cells. Viability plotted relative to growth in the presence of control. FIGS. 1C and 1D show PL5 cells treated with increasing concentrations of IpY.20 and E′NP before analysis of Cell Titer Glo analysis.
as §2, with “Cells were treated with IpY.20 for 24 h.” left out, “N=4 *p<0.05. The MCF7-ALT inducible cell line induced ROS.” left out
To test whether PDAC cells might be resistant to CDK4/6 inhibition due to activation of CDK2, experiments were performed. […] Some non-specific liposome toxicity was detected at the high concentrations. […]

[4] = tested on: CDK4i-resistant and treatment naive breast cancer cells; assay: Arrest of breast cancer cells
[5] = L3.6, PL45 and Panel, to differing extents
[6] = PDAC lines that increased pRIPK1, pretreatment 24 h, then IpY.20 24 h

## CC(=O)N[C@@H](CS)C(=O)O [NAC, N-acetyl-1-cysteine]
PDAC cell lines [1]; [5]
  rescue from IpY.20 effect: rescued
PDAC cell lines [1]; [6]
  rescue from IpY.20 effect: rescued
PDAC cell lines [2]; BxPC3 cells, pretreatment followed by IpY.20
  ROS levels: reduced

## CN1C(=O)C(Cc2c[nH]c3ccccc23)NC1=S (stereo not drawn) [Nec1, Necrostatin-1]
PDAC cell lines [1]; [5]
  rescue from IpY.20 effect: rescued
PDAC cell lines [1]; [6]
  rescue from IpY.20 effect: rescued

B1: IpY.20: smaller and more stable variant of ALT, SEQ ID NO: 6; tested as liposomal IpY.20 (peptide)
chain: MVSRDQAHLGPKYVGLWDFKSRTDEELSFRAGDVFHVARKEEQWWWATLLDEAGGAVAQGYVPHNYLAERETVESEPAGHAGSAALQDLAA
modifications: liposomal formulation
BxPC3
  caspase expression: strongly induced
pRIPK1; Super sensitive PDAC lines
  pRIPK1 expression: did not exhibit induction
pRIPK1; less sensitive PDAC lines
  pRIPK1 expression: increased
[3]; PL5, Panc1, L3.6 and BXPC3
  sensitivity to treatment: super sensitivity
[3]; increasing concentrations for 24h, relative to untreated control
  viability of CDK4i resistant pancreatic cell lines: reduces viability
PDAC cell lines [2]; treated 24 h, relative to untreated control cells
  ROS levels: induces ROS
[4]
  ability to arrest cells: behaved similarly to IpY.1
